Each block holds one binder with its values, some of them ahead of it.
Experiments:
Pig VEGF-A-121 (pig) = Pig VEGF-A-121 (pig) (UniProt P49151); assay: SPR crossreactivity set-up, VEGF-A121-His captured by anti-His antibody, Fab injected, single cycle kinetics
human VEGFA-165 (human) = human VEGFA-165 (human) (UniProt P15692); assay: KinExA, VEGFA-165; set-up for VEGFA-165 not described
[1] = target: human VEGFA-121-His (human) (UniProt P15692); assay: KinExA equilibrium titration in solution, VEGFA-121
Chain of human VEGFA-121-His (human) (P15692 other isoform, or with tags, fused parts or gaps): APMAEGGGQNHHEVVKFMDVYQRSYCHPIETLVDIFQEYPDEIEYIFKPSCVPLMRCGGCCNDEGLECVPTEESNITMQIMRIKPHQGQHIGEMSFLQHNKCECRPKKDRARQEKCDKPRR

Chain of Pig VEGF-A-121 (pig) (P49151 other isoform, or with tags, fused parts or gaps limits assumed): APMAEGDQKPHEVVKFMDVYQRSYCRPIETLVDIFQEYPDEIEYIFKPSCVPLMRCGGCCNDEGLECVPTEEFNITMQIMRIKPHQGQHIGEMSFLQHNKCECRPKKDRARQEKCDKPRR
Chain of human VEGFA-165 (human) (P15692 other isoform, or with tags, fused parts or gaps limits assumed): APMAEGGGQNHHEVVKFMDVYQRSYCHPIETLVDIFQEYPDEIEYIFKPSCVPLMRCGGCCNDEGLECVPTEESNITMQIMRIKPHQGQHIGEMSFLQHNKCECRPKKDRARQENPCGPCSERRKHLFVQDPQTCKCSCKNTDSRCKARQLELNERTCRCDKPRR

Kd (Pig VEGF-A-121 (pig)): 2790 pM | koff (Pig VEGF-A-121 (pig)): 0.000499 s⁻¹ | kon (Pig VEGF-A-121 (pig)): 179000 M⁻¹ s⁻¹ | t1/2 (Pig VEGF-A-121 (pig)): 23 min
B1: bispecific anti-VEGF-A/anti-ANG2 Fab fragment P1AD9820 (Fab, V domains shown)
VH: SEHLVESGGGLVKPGGSLRLSCATADFFEYDDMSWVRQAPGKGLEWVGSISPKGDHKYLNTKFIGRFTISRDDSKNTLYLQMNSLRAEDTAVYYCARDVGFFDWWGQGTLVTVSS
VL: AIYMHQEPSSLSASVGDRVTITCHGSYWLNSEVAWYQQKPGKAPKLLIFDGDFKVYEVPSRFSGSGSHEDYTLTISSLQPEDFATYYCQQYRYHPYTFGHGTKVEIKR

Kd (human VEGFA-165 (human)): 1 pM | Kd [1]: 2 pM
B2: Brolucizumab-analogue (scFv, INN chains, looked up, V domains shown)
VH: EVQLVESGGGLVQPGGSLRLSCTASGFSLTDYYYMTWVRQAPGKGLEWVGFIDPDDDPYYATWAKGRFTISRDNSKNTLYLQMNSLRAEDTAVYYCAGGDHNSGWGLDIWGQGTLVTVSS
VL: EIVMTQSPSTLSASVGDRVIITCQASEIIHSWLAWYQQKPGKAPKLLIYLASTLASGVPSRFSGSGSGAEFTLTISSLQPDDFATYYCQNVYLASTNGANFGQGTKLTVL
modifications: scFv
